This note sets out measurements from the Human Domainome abundance scans (Beltran et al. 2025).

± gives the uncertainty stated by the source.

Sequences and labels used below:
B1: Zinc finger homeobox protein 3, residues 2244 to 2299; numbered along this chain, Q15911 (parent)
chain: SSRTRFTDYQLRVLQDFFDANAYPKDDEFEQLSNLLNLPTRVIVVWFQNARQKARK

In the data set the parent is B1. Description: abundance fitness (aPCA) (normalised: wild type 0, dead -1); higher = more abundant; growth selection in yeast, the domain comes from the species named. The following applies: Homo sapiens.
As to Y9Q, the abundance fitness worked out at 0.211 ± 0.16.
In the case of Y9T, the abundance fitness was -0.135 ± 0.15.
As to Y9P, the abundance fitness was -0.195 ± 0.14.
As to Y9S, the abundance fitness is 0.053 ± 0.094.
Regarding V44I, the abundance fitness was -0.223 ± 0.2.
With V44K the figure was -0.071 ± 0.16.
Take V44H: the abundance fitness is -0.524 ± 0.27.
Next, V44G: 0.034 ± 0.083; V44W: -0.084 ± 0.12.
As for F47S, the abundance fitness was -0.75 ± 0.084.
Take F47Y: the abundance fitness was -0.112 ± 0.094.
Next, F47N: -0.928 ± 0.13.
Next, F47R: -0.941 ± 0.1; F47G: -0.66 ± 0.1; I43F: -0.792 ± 0.24.
Take I43S: the abundance fitness was -0.845 ± 0.13.
Take I43G: the abundance fitness is -0.637 ± 0.11.
With I43Q the figure was -0.637 ± 0.19.
Turning to I43T, the abundance fitness was -0.396 ± 0.12.
As to I43C, the abundance fitness was -0.36 ± 0.17.
With D27F the figure was -0.233 ± 0.15.
For the variant D27M, the abundance fitness is -0.037 ± 0.088.
Next, D27W: -0.157 ± 0.082; D27N: -0.063 ± 0.15; D27G: 0.095 ± 0.069.
Next, D27R: -0.147 ± 0.071; F6H: -0.672 ± 0.1.
As for F6M, the abundance fitness was found to be 0.094 ± 0.11.
On to F6A, for which the abundance fitness was -0.678 ± 0.098.
Consider K56N, for which the abundance fitness amounted to 0.103 ± 0.14.
Next, K56G: -0.029 ± 0.23; K56P: 0.004 ± 0.19.
As for A22P, the abundance fitness turned out to be 0.101 ± 0.073.
With A22C the figure was -0.156 ± 0.086; with A22G, 0.015 ± 0.079; with A22I, -0.07 ± 0.092.
With A22R the figure was -0.147 ± 0.069.
With A22F the figure was -0.353 ± 0.1; with A22T, 0.01 ± 0.077.
In the case of A22Y, the abundance fitness is -0.196 ± 0.098.
Turning to W46G, the abundance fitness was -0.856 ± 0.1.
Next, W46T: -0.611 ± 0.18; W46M: -0.81 ± 0.14; W46C: -0.759 ± 0.2.
Turning to R41K, the abundance fitness is 0.074 ± 0.12.
On to R41M, for which the abundance fitness is 0.005 ± 0.1.
With R41F the figure was -0.011 ± 0.091; with R41Y, -0.119 ± 0.096.
In the case of R41L, the abundance fitness was -0.075 ± 0.074.
On to R41C, for which the abundance fitness was -0.002 ± 0.1.
With R41Q the figure was 0.018 ± 0.12.
With R41H the figure was 0.117 ± 0.087.
With L11H the figure was -0.203 ± 0.19; with L11K, -0.146 ± 0.18.
L11T: the abundance fitness was 0.172 ± 0.15.
Turning to L11V, the abundance fitness turned out to be 0.015 ± 0.078.
Next, L11N: 0.007 ± 0.19; L11E: 0.038 ± 0.12; N37V: -0.117 ± 0.086.
With N37P the figure was -0.831 ± 0.19; with N37S, -0.064 ± 0.096.
As to N37T, the abundance fitness is -0.179 ± 0.13.
With N37E the figure was -0.034 ± 0.1; with V45D, 0.155 ± 0.096; with V45L, -0.12 ± 0.076.
As for V45F, the abundance fitness was -0.171 ± 0.1.
As to V45W, the abundance fitness was -0.136 ± 0.1.
With V45S the figure was 0.008 ± 0.074.
Next, S2E: 0.182 ± 0.15.
Consider S2Q, for which the abundance fitness is -0.093 ± 0.27.
On to S2F, for which the abundance fitness is -0.214 ± 0.17.
In the case of S2R, the abundance fitness is -0.299 ± 0.11.
With Q31G the figure was -0.055 ± 0.085; with Q31P, -0.764 ± 0.24; with Q31S, -0.082 ± 0.11.
With Q31I the figure was 0.117 ± 0.29; with L38C, -0.451 ± 0.16.
With L38V the figure was -0.226 ± 0.082; with L38K, -0.531 ± 0.17; with L38N, -0.76 ± 0.47.
As for L38Q, the abundance fitness is -0.174 ± 0.13.
In the case of L38T, the abundance fitness is -0.166 ± 0.12.
Next, L38G: -0.884 ± 0.094; L38D: -1.07 ± 0.35; L38H: -0.967 ± 0.3.
In the case of L38E, the abundance fitness was -0.278 ± 0.11.
Next, D26H: -0.683 ± 0.26; D26C: -0.506 ± 0.2.
Next, D26P: -0.163 ± 0.14; D26I: 0.038 ± 0.21.
With D26S the figure was -0.219 ± 0.12; with D26W, -0.376 ± 0.14.
In the case of D26V, the abundance fitness was -0.055 ± 0.12.
As for D26L, the abundance fitness was -0.307 ± 0.11.
Next, D26F: -0.332 ± 0.22; L35C: -0.176 ± 0.13.
Next, L35R: 0.085 ± 0.083; L35I: 0.067 ± 0.17; L35G: -0.06 ± 0.079.
For L35S, the abundance fitness was found to be 0.007 ± 0.096.
Next, L35V: 0.041 ± 0.083; L35E: -0.107 ± 0.13; L14V: -0.493 ± 0.091.
With L14W the figure was -0.946 ± 0.15; with N49K, -0.024 ± 0.17; with N49D, 0.066 ± 0.18.
As to N49P, the abundance fitness is -0.986 ± 0.2.
Next, N49W: -0.252 ± 0.1; N49S: -0.056 ± 0.11; N49G: 0.046 ± 0.081.
As to N49E, the abundance fitness worked out at 0.141 ± 0.13.
Next, P24W: -0.381 ± 0.19; P24G: -1.24 ± 0.28.
With P24H the figure was -0.927 ± 0.43.
As for K53P, the abundance fitness is -0.237 ± 0.082.
Next, K53H: 0.013 ± 0.081; K53Q: -0.109 ± 0.1.
Take K53E: the abundance fitness was 0.162 ± 0.16.
Next, K53C: -0.029 ± 0.095; K53V: -0.085 ± 0.092; K53M: 0.008 ± 0.12.
With K53G the figure was -0.005 ± 0.11; with D19V, -0.141 ± 0.27.
With D19P the figure was -0.686 ± 0.5.
For the variant D19A, the abundance fitness is -0.024 ± 0.22.
With L36D the figure was -0.908 ± 0.28; with L36I, -0.459 ± 0.32.
With L36G the figure was -0.929 ± 0.12.
L36H: the abundance fitness was -1.06 ± 0.46.
With L36F, the abundance fitness is -0.659 ± 0.19.
Next, L36S: -0.272 ± 0.11.
With L36Q the figure was -0.988 ± 0.29; with R5Y, 0.344 ± 0.088.
Next, R5W: 0.234 ± 0.097; R5S: 0.2 ± 0.072.
As to R5D, the abundance fitness is 0.423 ± 0.084.
Take R5H: the abundance fitness stood at 0.218 ± 0.12.
R5Q: the abundance fitness was determined as 0.092 ± 0.11.
For the variant R5L, the abundance fitness worked out at 0.197 ± 0.072.
With R55S the figure was 0.142 ± 0.075; with R55N, -0.218 ± 0.16.
On to R55A, for which the abundance fitness is -0.172 ± 0.12.
As to R55Y, the abundance fitness is -0.073 ± 0.13.
With R55F the figure was -0.069 ± 0.1; with R55V, -0.048 ± 0.11; with N34Q, -0.208 ± 0.26.
For the variant N34E, the abundance fitness was 0.118 ± 0.14.
With N34V the figure was 0.001 ± 0.14.
As for N34K, the abundance fitness came to 0.137 ± 0.2.
Next, K25W: -0.512 ± 0.13; K25G: -0.14 ± 0.085.
As to K25E, the abundance fitness was -0.306 ± 0.11.
For the variant K25D, the abundance fitness is -0.466 ± 0.15.
For the variant D16A, the abundance fitness was -0.353 ± 0.11.
With D16C the figure was -0.472 ± 0.13; with D16N, -0.222 ± 0.19.
Next, N21K: 0.166 ± 0.14; N21C: -0.232 ± 0.16.
For N21M, the abundance fitness was -0.394 ± 0.13.
As to N21D, the abundance fitness is -0.306 ± 0.16.
Regarding N21P, the abundance fitness was -0.74 ± 0.18.
Next, N21G: -0.378 ± 0.087.
Turning to E28N, the abundance fitness is -0.39 ± 0.19.
Consider E28R, for which the abundance fitness was -0.481 ± 0.088.
With E28K the figure was -0.422 ± 0.13; with E28I, -0.374 ± 0.2; with T7D, -0.258 ± 0.14.
